In US7098309:

How the values were obtained:
[1] = target: plasma-derived Dane particles (hepatitis B virus); test: AUZYME sandwich ELISA on plasma-derived Dane particles
[2] = target: improved recombinant hepatitis B surface antigen (rHBsAg) refolded in GSH/GSSG redox buffer, with formalin, formulated on alum (Bulk Alum Product) (hepatitis B virus) (UniProt P03141); test: AUZYME sandwich ELISA on alum-formulated rHBsAg; row label names the rHBsAg preparation (group A, with 1.0 mM GSH and 0.2 mM GSSG)
[3] = target: improved recombinant hepatitis B surface antigen (rHBsAg) refolded in GSH/GSSG redox buffer, formalin omitted, formulated on alum (hepatitis B virus) (UniProt P03141); test: AUZYME sandwich ELISA; row label names the rHBsAg batch (redox buffer, no formalin, glass tank)
[4] = target: recombinant hepatitis B surface antigen (rHBsAg) processed without redox buffer, with formalin, formulated on alum (Bulk Alum Product) (hepatitis B virus) (UniProt P03141); test: AUZYME sandwich ELISA on alum-formulated rHBsAg; row label names the rHBsAg preparation (group C, no redox buffer)
[5] = target: improved recombinant hepatitis B surface antigen (rHBsAg) refolded in GSH/GSSG redox buffer, formalin omitted, formulated on alum (hepatitis B virus) (UniProt P03141); test: AUZYME sandwich ELISA; row label names the rHBsAg batch (redox buffer, no formalin, stainless steel tank)
[6] = target: recombinant hepatitis B surface antigen (rHBsAg) processed without redox buffer, with formalin, formulated on alum (Bulk Alum Product) (hepatitis B virus) (UniProt P03141); test: AUZYME sandwich ELISA; row label names the rHBsAg batch (no redox buffer, with formalin, glass tank)
[7] = target: improved recombinant hepatitis B surface antigen (rHBsAg) refolded in GSH/GSSG redox buffer, with formalin, formulated on alum (Bulk Alum Product) (hepatitis B virus) (UniProt P03141); test: AUZYME sandwich ELISA on alum-formulated rHBsAg; row label names the rHBsAg preparation (group C, with 1.0 mM GSH and 0.2 mM GSSG)
[8] = target: recombinant hepatitis B surface antigen (rHBsAg) processed without redox buffer, with formalin, formulated on alum (Bulk Alum Product) (hepatitis B virus) (UniProt P03141); test: AUZYME sandwich ELISA on alum-formulated rHBsAg; row label names the rHBsAg preparation (group B, no redox buffer)
[9] = target: improved recombinant hepatitis B surface antigen (rHBsAg) refolded in GSH/GSSG redox buffer, with formalin, formulated on alum (Bulk Alum Product) (hepatitis B virus) (UniProt P03141); test: AUZYME sandwich ELISA on alum-formulated rHBsAg; row label names the rHBsAg preparation (group B, with 1.0 mM GSH and 0.2 mM GSSG)
[10] = target: improved recombinant hepatitis B surface antigen (rHBsAg) refolded in GSH/GSSG redox buffer, with formalin, formulated on alum (Bulk Alum Product) (hepatitis B virus) (UniProt P03141); test: AUZYME sandwich ELISA; row label names the rHBsAg batch (redox buffer, with formalin, glass tank)
[11] = target: recombinant hepatitis B surface antigen (rHBsAg) processed without redox buffer, with formalin, formulated on alum (Bulk Alum Product) (hepatitis B virus) (UniProt P03141); test: AUZYME sandwich ELISA on alum-formulated rHBsAg; row label names the rHBsAg preparation (group A, no redox buffer)

AUZYME monoclonal enzyme immunoassay antibodies: mouse monoclonal antibodies to hepatitis B surface antigen coated on beads, and mouse monoclonal Anti-HBsAg peroxidase conjugate (antibody)
ELISA response (in vitro relative potency scale) (relative to reference rHBsAg = 1.0) [1]: 5 | IVRP (in vitro relative potency) (relative to reference rHBsAg = 1.0) [2]: 3.56 | IVRP (in vitro relative potency) (relative to reference rHBsAg = 1.0) [3]: 4.62 | IVRP (in vitro relative potency) (relative to reference rHBsAg = 1.0) [4]: 1.44 | IVRP (in vitro relative potency) (relative to reference rHBsAg = 1.0) [5]: 4.3 | IVRP (in vitro relative potency) (relative to reference rHBsAg = 1.0) [6]: 2.51 | IVRP (in vitro relative potency) (relative to reference rHBsAg = 1.0) [7]: 2.47 | IVRP (in vitro relative potency) (relative to reference rHBsAg = 1.0) [8]: 1.69 | IVRP (in vitro relative potency) (relative to reference rHBsAg = 1.0) [9]: 2.7 | IVRP (in vitro relative potency) (relative to reference rHBsAg = 1.0) [10]: 4.32 | IVRP (in vitro relative potency) (relative to reference rHBsAg = 1.0) [11]: 2.09
